± gives the uncertainty stated by the source.
Assay: amyloid nucleation score (Sup35N fusion, yeast selection) (log enrichment); library NNK3; higher = more nucleation; inactive = no reads after selection
Procedure, shortened: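 Peptides of 20 random codons, each fused to Sup35N, were expressed in psi-negative yeast. Cells were induced with 100 μM copper sulfate for 24 hours and grown 7 days at 30°C on medium lacking adenine and uracil, and plasmid inserts before and after selection were Illumina-sequenced. Nucleation scores are DiMSum log enrichments of output over input reads, centred on the mode score of non-aggregating sequences, and sequences under 100 input reads were excluded.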
In the case of SCNNDPFTNDNASLVRLGRE, the amyloid nucleation score is reported as “inactive”.
Substance SCNSRFMI has an amyloid nucleation score of -0.082 ± 0.66.
For SCSIIYRPPSIWRYSKRTSL, the amyloid nucleation score was “inactive”.
For SCVDPVRWLRGASF, the amyloid nucleation score was “inactive”.
In the case of SCWLGVVETRHNLYDAQNGS, the amyloid nucleation score is reported as “inactive”.
With SCYFGILQWSQSPYFHCPFT the amyloid nucleation score was “inactive”.
For SDCCGRNHVPEGVLWSQFNY, the amyloid nucleation score was “inactive”.
With SDCGDFRLMVFQKSRRDSWN the amyloid nucleation score was “inactive”.
With SDCSGYLQ the amyloid nucleation score was “inactive”.
With SDFDMFSCLGNRNLHCSVSV the amyloid nucleation score was “inactive”.
In the case of SDFRVTPLLYE, the amyloid nucleation score is reported as “inactive”.
In the case of SDGNSMLGDFRVRMVCHMLL, the amyloid nucleation score is reported as “inactive”.
With SDGSTRQSVRRVATPNVSRY the amyloid nucleation score was “inactive”.
With SDIIM the amyloid nucleation score was “inactive”.
With SDKPSMLKMIHVMR the amyloid nucleation score was “inactive”.
For SDMTYHQWGTVYTLD, the amyloid nucleation score was “inactive”.
With SDNFLRNSLSQEYVRQTLGQ the amyloid nucleation score was “inactive”.
With SDNRSPSLRLFYRPRFHRLG the amyloid nucleation score was “inactive”.
In the case of SDQSCGDIMMELFWQM, the amyloid nucleation score is reported as “inactive”.
With SDRFYHCTFHAVTVRWKQRV the amyloid nucleation score was “inactive”.
With SDRYDCRDGSCFNRKVRYSL the amyloid nucleation score was “inactive”.
With SDSFSGPVKEPRYWGSQ the amyloid nucleation score was “inactive”.
In the case of SDTRGVF, the amyloid nucleation score is reported as “inactive”.
With SDWFGCVVVTLCLVNHQALS the amyloid nucleation score was “inactive”.
For SDYYMENISFCENMRDILFS, the amyloid nucleation score was “inactive”.
With SECRTRLWLRESYNFSPDVK the amyloid nucleation score was “inactive”.
With SECWKAFDLGYDNKLSIPRI the amyloid nucleation score was “inactive”.
For SEGFLAWCLRDLRSGRVAR, the amyloid nucleation score was “inactive”.
With SEIRGNRNMTTEAPT the amyloid nucleation score was “inactive”.
For SELQYISLIYCDNRVCLHAL, the amyloid nucleation score was “inactive”.
With SEMHRERDTMCKVLPDNDKN the amyloid nucleation score was “inactive”.
In the case of SENVYPCALKRSKGMLIRMV, the amyloid nucleation score is reported as “inactive”.
With SEPIWYFRGFFCGLGLIWGW the amyloid nucleation score was -0.389 ± 0.98.
SEPRWSISDYWTKSVDMVLW gave an amyloid nucleation score of 1.07 ± 0.2.
With SERYADL the amyloid nucleation score was “inactive”.
For SESPKMLVHVVSHILRDFSE, the amyloid nucleation score was “inactive”.
In the case of SESQYRRWYTLAFVYMRHLN, the amyloid nucleation score is reported as “inactive”.
For SESSS, the amyloid nucleation score was “inactive”.
For SESTFYMGRLFKEGPRKHVT, the amyloid nucleation score was “inactive”.
In the case of SETHLLQGDISVVMVLSAN, the amyloid nucleation score is reported as “inactive”.
With SEVGMVSLRLFWLWWVTKPK the amyloid nucleation score was “inactive”.
For SEVWKWMPDKCVSDGYVFDI, the amyloid nucleation score was “inactive”.
Work on SFAGVCAMCKTCKRAKGVPA yielded an amyloid nucleation score of -0.39 ± 1.9.
For SFECDRYYFSWDGFMSGLT, the amyloid nucleation score was “inactive”.
In the case of SFFESCF, the amyloid nucleation score is reported as “inactive”.
In the case of SFFGVVGKEFVIVQLAIVSG, the amyloid nucleation score is reported as “inactive”.
In the case of SFLDNCPRGNRGQVGSEPVS, the amyloid nucleation score is reported as “inactive”.
With SFLGLMSMEELITS the amyloid nucleation score was “inactive”.
With SFLHTQSAKDTFVHNAVTYT the amyloid nucleation score was “inactive”.
SFLRIDVVWFSAFFGWSPFL gave an amyloid nucleation score of 0.357 ± 0.54.
SFLYDSVNANLNSTCCCGYI gave an amyloid nucleation score of -0.913 ± 0.9.
With SFMACRLCGRAVDDIVEYTV the amyloid nucleation score was “inactive”.
With SFMYVCNLLLSSWSCP the amyloid nucleation score was 1.83 ± 0.063.
With SFNLTNSKYWVR the amyloid nucleation score was “inactive”.
For SFNRGRLATLYSSLVHGRLR, the amyloid nucleation score was “inactive”.
For SFNSNSDDDIIFDALNYTLN, the amyloid nucleation score was 0.069 ± 0.62.
SFNVTVRGLSSSN gave an amyloid nucleation score of 0.027 ± 0.47.
With SFPLSYSSYIRLRVFFVE the amyloid nucleation score was “inactive”.
SFRFVSLVLFAVNDNYGRCW gave an amyloid nucleation score of 1.61 ± 0.13.
With SFRNKLELFQLVCMHNEPGC the amyloid nucleation score was “inactive”.
With SFSRPCWLYWAGFLSVVYRC the amyloid nucleation score was “inactive”.
For SFSYFRVSFEYGRCHRYAEN, the amyloid nucleation score was “inactive”.
In the case of SFSYWGKDRSRVSNL, the amyloid nucleation score is reported as “inactive”.
With SFTIIMALCSV the amyloid nucleation score was “inactive”.
For SFVKWVKNQHF, the amyloid nucleation score was “inactive”.
Substance SFVQLMFLFGT has an amyloid nucleation score of 1.83 ± 0.076.
SFVYCIVYLQSPFVLSTMVG gave an amyloid nucleation score of 2.62 ± 0.078.
For SGDKSYRSRYHWMGIQRVNR, the amyloid nucleation score was “inactive”.
For SGIAGECFAM, the amyloid nucleation score was “inactive”.
In the case of SGIYTMVWAFGFDVLYLLVS, the amyloid nucleation score is reported as “inactive”.
With SGKDIALMVHCVTVMWDQAY the amyloid nucleation score was “inactive”.
For SGLIQNTRR, the amyloid nucleation score was -0.428 ± 1.1.
For SGLKQSPQLVLCAVRPRRSN, the amyloid nucleation score was “inactive”.
For SGMDSKRKDSCLLCVHFHVS, the amyloid nucleation score was “inactive”.
With SGMLKRFSALRGISASVVGV the amyloid nucleation score was “inactive”.
For SGPGRSACSFYNAIFMRRFQ, the amyloid nucleation score was “inactive”.
In the case of SGRIRVSKSSTGKSLSTSII, the amyloid nucleation score is reported as “inactive”.
For SGVRANFDFLASVAAHPLNS, the amyloid nucleation score was “inactive”.
With SGVTHDHLTYVLGGGKVVSR the amyloid nucleation score was “inactive”.
In the case of SHSWQLSYSKSRYVIDAIAR, the amyloid nucleation score is reported as “inactive”.
In the case of SHVWPLLMYHGGIVWSKS, the amyloid nucleation score is reported as “inactive”.
In the case of SIDDGLSYLMGKVKIHKSGK, the amyloid nucleation score is reported as “inactive”.
With SIESMCPVYILVVAPEMCR the amyloid nucleation score was “inactive”.
With SIFPF the amyloid nucleation score was “inactive”.
For SIFRKINMYL, the amyloid nucleation score was “inactive”.
For SIGWSLCENRRQPGSRWSLP, the amyloid nucleation score was “inactive”.
In the case of SIHLMWRQCYFSLLCVNKGM, the amyloid nucleation score is reported as “inactive”.
With SIILVYKLE the amyloid nucleation score was “inactive”.
With SIKFYLRLMTSLKVKLY the amyloid nucleation score was “inactive”.
In the case of SILGFT, the amyloid nucleation score is reported as “inactive”.
In the case of SILKGGFCYMNFRSGKWGV, the amyloid nucleation score is reported as “inactive”.
For SILLLDSEGSMNLEAIV, the amyloid nucleation score was “inactive”.
With SILMMGNLFKLLRKF the amyloid nucleation score was “inactive”.
In the case of SILSPYLV, the amyloid nucleation score is reported as “inactive”.
SIQYIYFDASQMRIENSRSL gave an amyloid nucleation score of 2.37 ± 0.059.
Substance SIRVINKRHCCSSGDWREDR has an amyloid nucleation score of 1.78 ± 0.081.
For SIRYFRLSGMMSMYFFCFVV, the amyloid nucleation score was 0.952 ± 0.14.
With SISAALWAFL the amyloid nucleation score was “inactive”.
For SISCKKVGGSKASQRPYKA, the amyloid nucleation score was “inactive”.
With SIVICS the amyloid nucleation score was “inactive”.
In the case of SIYCANQRSLVYHYVLAFTT, the amyloid nucleation score is reported as “inactive”.
For SIYYSAILMGYWMDVKSLQY, the amyloid nucleation score was “inactive”.
For SKCEMMRTLEESDDVSFVVK, the amyloid nucleation score was “inactive”.
In the case of SKCVYAVWCACVFARF, the amyloid nucleation score is reported as “inactive”.
With SKESTNSVRCVFITVSPTRR the amyloid nucleation score was 0.976 ± 0.21.
For SKFCSGSLFMIRCILGSRYL, the amyloid nucleation score was “inactive”.
With SKKPVEMTRNI the amyloid nucleation score was “inactive”.
In the case of SKKSRSLNWFLLVNRTPDAG, the amyloid nucleation score is reported as “inactive”.
With SKMRRSFCPIWFSRWSFLST the amyloid nucleation score was “inactive”.
For SKWSTEFLTCHT, the amyloid nucleation score was “inactive”.
For SKWYLFITGFRYMWFVRFNV, the amyloid nucleation score was “inactive”.
With SLAAIYSFVYFSSDVIRSHY the amyloid nucleation score was 1.34 ± 0.15.
With SLAGEHPRPIVG the amyloid nucleation score was “inactive”.
For SLASYLFTVTATNRYCERGA, the amyloid nucleation score was 0.996 ± 0.12.
For SLCFGTP, the amyloid nucleation score was “inactive”.
SLCFRSIINIGFFK showed an amyloid nucleation score of 2.15 ± 0.056.
Substance SLCGLFRYAWYQFEFNDVRA has an amyloid nucleation score of 0.977 ± 0.12.
Work on SLCSVLIMHPSNSDRF yielded an amyloid nucleation score of 0.101 ± 0.75.
SLDKSMSGKRSLVRADSTLS showed an amyloid nucleation score of -0.046 ± 0.88.
Substance SLDSYDTDLKGVCCQVFCIK has an amyloid nucleation score of 3.24 ± 0.062.
In the case of SLEVINVVRININNQEYIYL, the amyloid nucleation score is reported as 0.276 ± 0.23.
With SLFMMWLYVCQLYCLFDGIE the amyloid nucleation score was “inactive”.
With SLGLHIWFCTLLAIWTLLLL the amyloid nucleation score was “inactive”.
With SLGLNTPAREFYWGCILTFG the amyloid nucleation score was “inactive”.
For SLGQLYDLGSRW, the amyloid nucleation score was -0.805 ± 1.7.
In the case of SLKCLLLVMTCSLTSHAPPA, the amyloid nucleation score is reported as “inactive”.
For SLKELRVSLSSLCACDSNNN, the amyloid nucleation score was “inactive”.
Substance SLLRDVKG has an amyloid nucleation score of -0.487 ± 1.4.
In the case of SLLSEMSTR, the amyloid nucleation score is reported as “inactive”.
For SLLWCKANPKRF, the amyloid nucleation score was “inactive”.
SLMKPKSVMEAKVIRINLCL gave an amyloid nucleation score of 0.494 ± 0.28.
SLMTVRVNHK showed an amyloid nucleation score of 0.621 ± 0.2.
In the case of SLRHLDFFRLTGFWHFYALD, the amyloid nucleation score is reported as “inactive”.
In the case of SLRRKIGLLIFFDNLIF, the amyloid nucleation score is reported as “inactive”.
In the case of SLRSCVYPMDDGIMQCWSSR, the amyloid nucleation score is reported as “inactive”.
In the case of SLRSYSGILSFYGYSGKIST, the amyloid nucleation score is reported as “inactive”.
With SLSLNIQGSNYFLHIVNIGR the amyloid nucleation score was “inactive”.
In the case of SLSTSNLNIKLSPCYSFNRH, the amyloid nucleation score is reported as 0.678 ± 0.31.
With SLTGRWSTVGRSMGLNTRGG the amyloid nucleation score was “inactive”.
For SLVAFPLFAGCVIW, the amyloid nucleation score was “inactive”.
In the case of SLVIQKSFRGDGLRVRHGLQ, the amyloid nucleation score is reported as “inactive”.
In the case of SLVSGLRCVWLMFVSNGHQK, the amyloid nucleation score is reported as “inactive”.
For SLVTYNVVRSKARNRWIELV, the amyloid nucleation score was “inactive”.
For SLYLGWVPAIELLG, the amyloid nucleation score was “inactive”.
In the case of SLYMTVGESVPSMSASMYFG, the amyloid nucleation score is reported as “inactive”.
Substance SLYRKGRHFGGCSCSIVRFR has an amyloid nucleation score of 0.319 ± 0.78.
For SLYRWYVQMRGIR, the amyloid nucleation score was “inactive”.
In the case of SMASK, the amyloid nucleation score is reported as -0.64 ± 0.82.
With SMEIGLGVEIYDVMRFGERM the amyloid nucleation score was “inactive”.
In the case of SMIGQSVEFYLISCYRGLCT, the amyloid nucleation score is reported as “inactive”.
For SMLAFDLGGCAQTVTGWW, the amyloid nucleation score was “inactive”.
SMLISRSEHLRLDTFGDSRY gave an amyloid nucleation score of 0.634 ± 0.13.
In the case of SMQGDRWFLVL, the amyloid nucleation score is reported as “inactive”.
In the case of SMRILR, the amyloid nucleation score is reported as “inactive”.
For SMRSGVLGHIIQTM, the amyloid nucleation score was “inactive”.
In the case of SMSAMYDSAIVV, the amyloid nucleation score is reported as “inactive”.
In the case of SMSFTQFKGGGSIIITWCWP, the amyloid nucleation score is reported as “inactive”.
